This is an account of results in patent US20090068224A1, “METHOD TO IDENTIFY POLYPEPTIDE TOLL-LIKE RECEPTOR (TLR) LIGANDS” (VAXINNATE CORPORATION, priority 2005, published 2009).

Sequence of human TLR2 (293.hTLR2 cells) (O60603 21-784): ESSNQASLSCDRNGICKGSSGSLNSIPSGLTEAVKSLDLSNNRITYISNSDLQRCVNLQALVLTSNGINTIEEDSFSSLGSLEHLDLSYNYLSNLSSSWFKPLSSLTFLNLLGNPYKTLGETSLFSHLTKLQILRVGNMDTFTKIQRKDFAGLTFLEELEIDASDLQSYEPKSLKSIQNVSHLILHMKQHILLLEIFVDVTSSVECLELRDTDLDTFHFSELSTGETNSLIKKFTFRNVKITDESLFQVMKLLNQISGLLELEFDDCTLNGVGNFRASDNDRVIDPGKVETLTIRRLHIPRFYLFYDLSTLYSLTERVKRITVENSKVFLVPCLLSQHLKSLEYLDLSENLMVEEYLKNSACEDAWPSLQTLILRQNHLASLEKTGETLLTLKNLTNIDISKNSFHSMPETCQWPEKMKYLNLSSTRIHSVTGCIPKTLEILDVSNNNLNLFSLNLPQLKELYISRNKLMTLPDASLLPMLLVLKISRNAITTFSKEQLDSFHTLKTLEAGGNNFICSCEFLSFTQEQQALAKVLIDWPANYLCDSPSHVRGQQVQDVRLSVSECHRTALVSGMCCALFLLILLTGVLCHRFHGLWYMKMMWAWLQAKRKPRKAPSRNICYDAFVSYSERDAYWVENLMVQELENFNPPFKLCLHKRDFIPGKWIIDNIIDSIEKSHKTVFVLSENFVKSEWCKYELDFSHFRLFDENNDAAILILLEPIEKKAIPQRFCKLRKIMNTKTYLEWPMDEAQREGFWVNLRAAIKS

One experiment has as its target human TLR2 (293.hTLR2 cells) (Homo sapiens, UniProt O60603). Description: Biopanning of pentameric random peptide phage display library, sequencing of enriched clones. In kind it is binding. As to conditions: percentage of all clones sequenced (n = 109) having given peptide sequence; after 4 rounds of biopanning, TLRlo parental HEK293, TLRhi 293.hTLR2; peptides with identity to known microbial proteins. How it is done: Screening of phage display libraries by biopanning: Phage display libraries are screened for peptide TLR ligands according to the following procedure. The phage display library is incubated on an in vitro cultured monolayer of cells that express minimal amounts of the TLR of interest (TLR^lo) in order to reduce non-specific binding, and then transferred to an in vitro suspension culture of cells expressing the relevant TLR (TLR^hi) to capture phage with binding specificity for the target TLR. After several washes with PBS to remove phage remaining unbound to the TLR^hi cells, TLR^hi cell-bound phages are harvested by centrifugation. The TLR^hi cells with bound phage are incubated with E. coli (strain BLT5615) in order to amplify the phage. This process is repeated three or more times to yield a phage population enriched for high affinity binding to the target TLR.
In each round of biopanning, the harvested phage that are bound to TLR^hi cells can be titred prior to amplification, amplified, and then titred again prior to initiation of the next cycle of biopanning. In this way, it is possible to determine the percent (%) of input phage in each cycle that are ultimately harvested from the TLR^hi cells. This calculation provides a round-by-round measure of enrichment within the phage display library for phage that display TLR-binding peptides.
Construction of random peptide libraries (RPL): A pentameric random peptide phage display library of T7SELECT phage was constructed essentially as described in Example 2. A pair of phosphorylated oligonucleotides with the sequence NNBNNBNNBNNBNNB (where N=A/G/C/T, B=G/C/T) flanked at the 5′ and 3′ ends by EcoRI and HindIII sites, respectively, was synthesized. Equimolar amounts of the oligonucleotides were annealed by heating for 5 min at 90° C. with gradual cooling to 25° C. The double stranded DNA was ligated to T7Select 10-3 bacteriophage vector (Novagen) that had been previously digested with EcoRI and HindIII. The ligation reactions were packaged in vitro and titred using the host E. coli strain […] that was grown in M9TB (Novagen), generating 2.5×10^7 clones, representing about 75% coverage of the library. The recombinant phage were subjected to several rounds of amplification to generate a total library of 1.35×10^12 phage, ensuring representation in excess of 5×10^4 fold for each clone in the library.
Sequencing of phage inserts: Individual phage clones from the enriched pool are isolated via plaque formation in E. coli. The DNA inserts of individual phage are amplified in PCR using the commercially available primers T7SelectUP (5′-GGAGCTGTCGTATTCCAGTC-3′; SEQ ID NO: 37; Novagen, catalog #70005) and T7SelectDOWN (5′-AACCCCTCAAGACCCGTTTA-3′; SEQ ID NO: 38; Novagen, catalog #70006). The PCR product DNA is purified using the QIAquick 96 PCR Purification Kit (Qiagen) and subjected to DNA sequencing using T7SelectUP and T7SelectDOWN primers.
We constructed a pentameric random peptide phage display library in T7 phage. This phage library was then screened by biopanning as described in Example 3. For this screen, the TLR^lo cells were parental HEK293 (TLR2^−) cells, and the TLR^hi cells were HEK293 cells ectopically expressing human TLR2 (293.hTLR2, see Example 1, above). Phage bound to 293.hTLR2 cells were harvested, titred, and amplified prior to initiation of the each cycle of panning. In this way, it was possible to determine the % of input phage in each cycle that was ultimately harvested from the TLR2^hi cells.
After 4 rounds of biopanning, individual phage clones from the enriched pool were isolated via plaque formation in E. coli. […] phage clones were randomly picked for sequencing. Of the 109 individual clones examined the motif DPDSG was predominant (see Tables 6 and 7). […]
“ADTHQ [peptide TLR2 ligand from phage display]”: the “% Abundance” value came to 0.9%.
As for “AWAGT [peptide TLR2 ligand from phage display]”, the “% Abundance” value is 0.9%.
Take “CVWLQ [peptide TLR2 ligand from phage display]”: the “% Abundance” value was 0.9%.
For the substance “GPLLH [peptide TLR2 ligand from phage display]”, the “% Abundance” value was 0.9%.
Regarding “HLLPG [peptide TLR2 ligand from phage display]”, the “% Abundance” value came out at 0.9%.
For “IGRFR [peptide TLR2 ligand from phage display]”, the “% Abundance” value is recorded as 2.7%.
The same measure, in the same setting: next, “IHVVP [peptide TLR2 ligand from phage display]”: 0.9%; “IMWFP [peptide TLR2 ligand from phage display]”: 0.9%; “IYKLA [peptide TLR2 ligand from phage display]”: 0.9%.
Take “KGWF [peptide TLR2 ligand from phage display]”: the “% Abundance” value was 0.9%.
Still for that read-out and setting: to “KYMPH [peptide TLR2 ligand from phage display]” belongs 0.9%; to “LRQGR [peptide TLR2 ligand from phage display]”, 0.9%; to “MFGVP [peptide TLR2 ligand from phage display]”, 0.9%.
On to “MGTLP [peptide TLR2 ligand from phage display]”, for which the “% Abundance” value is given as 1.8%.
Take “NYRRW [peptide TLR2 ligand from phage display]”: the “% Abundance” value is 0.9%.
Same read-out and setting: next, “RVVAP [peptide TLR2 ligand from phage display]”: 0.9%; “SHIAL [peptide TLR2 ligand from phage display]”: 0.9%; “THKPK [peptide TLR2 ligand from phage display]”: 0.9%.
As for “VGKND [peptide TLR2 ligand from phage display]”, the “% Abundance” value is listed as 0.9%.

Staying with this experiment, now noted: percentage of all clones sequenced (n = 109) having given peptide sequence; after 4 rounds of biopanning, TLRlo parental HEK293, TLRhi 293.hTLR2; peptides with no homology to known proteins.
Consider “ACGVY [peptide TLR2 ligand from phage display]”, for which the “% Abundance” value is given as 0.92%.
In the case of “AGCFS [peptide TLR2 ligand from phage display]”, the “% Abundance” value was 0.92%.
On to “AVRLS [peptide TLR2 ligand from phage display]”, for which the “% Abundance” value came to 0.92%.
With “CGPKL [peptide TLR2 ligand from phage display]”, the “% Abundance” value was 0.92%.
Consider “EVCAP [peptide TLR2 ligand from phage display]”, for which the “% Abundance” value came to 0.92%.
Take “FCGLG [peptide TLR2 ligand from phage display]”: the “% Abundance” value is 0.92%.
As to “GGKLS [peptide TLR2 ligand from phage display]”, the “% Abundance” value amounted to 0.92%.
Same read-out and setting: next, “IMRHP [peptide TLR2 ligand from phage display]”: 0.92%; “KCQSF [peptide TLR2 ligand from phage display]”: 0.92%; “MISS [peptide TLR2 ligand from phage display]”: 0.92%.
As to “MRRIL [peptide TLR2 ligand from phage display]”, the “% Abundance” value turned out to be 0.92%.
As to “NPPTT [peptide TLR2 ligand from phage display]”, the “% Abundance” value worked out at 0.92%.
Regarding “NRFGL [peptide TLR2 ligand from phage display]”, the “% Abundance” value was 0.92%.
On to “NRTVF [peptide TLR2 ligand from phage display]”, for which the “% Abundance” value turned out to be 0.92%.
The same measure, in the same setting: next, “PESGV [peptide TLR2 ligand from phage display]”: 0.92%; “RGGF [peptide TLR2 ligand from phage display]”: 0.92%; “RGGSK [peptide TLR2 ligand from phage display]”: 3.67%.
The same measure, in the same setting: next, “SGGLF [peptide TLR2 ligand from phage display]”: 0.92%; “SRHGR [peptide TLR2 ligand from phage display]”: 0.92%.
“VSEGV [peptide TLR2 ligand from phage display]”: the “% Abundance” value is recorded as 3.67%.

The next experiment deals with TLR2 (Homo sapiens, UniProt O60603). Nature of the experiment: T7 phage biopanning, 4 rounds (negative on parental HEK293, positive on 293.hTLR2 cells); share of 109 sequenced clones.
Sequence of TLR2 (O60603 21-784 limits assumed): as the sequence (O60603 21-784) above
Details: not given
For the substance ACGVY (peptide), the % ABUNDANCE worked out at 0.92%.
Regarding ADTHQ (peptide), the % ABUNDANCE amounted to 0.9%.
AGCFS (peptide): the % ABUNDANCE was 0.92%.
With AVRLS (peptide), the % ABUNDANCE is 0.92%.
Same read-out and setting: to AWAGT (peptide) belongs 0.9%; to CGPKL (peptide), 0.92%.
For the substance CVWLQ (peptide), the % ABUNDANCE came to 0.9%.
For EVCAP (peptide), the % ABUNDANCE came to 0.92%.
In the case of FCGLG (peptide), the % ABUNDANCE amounted to 0.92%.
On the same count and under the same terms, next, GGKLS (peptide): 0.92%; GPLLH (peptide): 0.9%.
In the case of HLLPG (peptide), the % ABUNDANCE amounted to 0.9%.
As for IGRFR (peptide), the % ABUNDANCE is 2.7%.
Take IHVVP (peptide): the % ABUNDANCE is 0.9%.
For the substance IMRHP (peptide), the % ABUNDANCE worked out at 0.92%.
On the same count and under the same terms, next, IMWFP (peptide): 0.9%; IYKLA (peptide): 0.9%.
For the substance KCQSF (peptide), the % ABUNDANCE was 0.92%.
KGWF (peptide): the % ABUNDANCE amounted to 0.9%.
Turning to KYMPH (peptide), the % ABUNDANCE came out at 0.9%.
Regarding LRQGR (peptide), the % ABUNDANCE was found to be 0.9%.
On to MFGVP (peptide), for which the % ABUNDANCE was determined as 0.9%.
As for MGTLP (peptide), the % ABUNDANCE is 1.8%.
For the substance MISS (peptide), the % ABUNDANCE was 0.92%.
For MRRIL (peptide), the % ABUNDANCE turned out to be 0.92%.
Same read-out and setting: next, NPPTT (peptide): 0.92%.
On the same count and under the same terms, next, NRFGL (peptide): 0.92%.
Still for that read-out and setting: to NRTVF (peptide) belongs 0.92%; to NYRRW (peptide), 0.9%.
As for PESGV (peptide), the % ABUNDANCE was 0.92%.
On to RGGF (peptide), for which the % ABUNDANCE turned out to be 0.92%.
On the same count and under the same terms, to RGGSK (peptide) belongs 3.67%; to RVVAP (peptide), 0.9%; to SGGLF (peptide), 0.92%.
Still for that read-out and setting: to SHIAL (peptide) belongs 0.9%.
For the substance SRHGR (peptide), the % ABUNDANCE was found to be 0.92%.
For the substance THKPK (peptide), the % ABUNDANCE turned out to be 0.9%.
VGKND (peptide): the % ABUNDANCE was 0.9%.
On to VSEGV (peptide), for which the % ABUNDANCE was determined as 3.67%.
